Residue numbers refer to the chain shown, from its start.
B1: FP1 (dsDNA)
DNA 1: CAGCTAATCTCTCTGTTTATAGCTCTGACCTTTC
DNA 2: GAAAGGTCAGAGCTATAAACAGAGAGATTAGCTG
B2: FP1-CCC (dsDNA)
DNA 1: B1 DNA 1 with T16C, T17C, T18C
DNA 2: B1 DNA 2 with A17G, A18G, A19G

Experiments:
[1] = target: T1, Cdx2 (Mus musculus, UniProt P43241 P43241:1-311); experiment: EMSA; supershifted by anti-Cdx2, 10 mM Tris pH 7.5, 50 mM NaCl, 2.5 mM MgCl2, room temp; conditions: tags: pRc/CMV-Cdx2, TNT Quick-coupled (Promega); label: 32P 5'-end
T1 sequence: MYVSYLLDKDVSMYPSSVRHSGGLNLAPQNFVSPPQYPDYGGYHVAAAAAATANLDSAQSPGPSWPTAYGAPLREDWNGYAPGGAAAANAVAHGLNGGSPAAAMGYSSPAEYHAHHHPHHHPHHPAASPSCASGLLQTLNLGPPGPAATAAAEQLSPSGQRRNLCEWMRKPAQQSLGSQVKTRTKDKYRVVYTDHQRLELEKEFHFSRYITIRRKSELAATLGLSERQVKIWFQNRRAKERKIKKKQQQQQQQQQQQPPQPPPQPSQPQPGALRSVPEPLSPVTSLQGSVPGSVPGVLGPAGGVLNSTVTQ
Protocol: (§1) Electromobility Shift Assay (EMSA). Protein-DNA binding reactions performed in the same buffer as the DNase I protection assay (4% glycerol, 10 mM Tris-HCl (pH 7.5) 50 mM NaCl, 2.5 mM MgCl₂ and 5 mM DTT) included […] of Poly(dI.dC)-Poly(dI.dC) (Amersham Pharmacia Biotech, Piscataway, N.J.) and 30 kcpm of probe. Reactions were initiated by the addition of nuclear extract and incubated for 30 min at room temp to produce protein complexes which were separated on a 6% non-denaturing, polyacrylamide (37.5:1) gel in 0.5× TBE running buffer. Gels were dried prior to visualization of radiolabelled complexes by autoradiography. In competition assays, unlabelled competitor was added to the reaction mixtures at concentrations ranging from 25-fold to 250-fold molar excess of the labeled probe prior to the addition of the nuclear extract. Supershift assays were performed by adding […] of murine Cdx2 antibody after an initial incubation period of 30 min; incubation was then continued for an additional 30 min. Transcribed and translated murine Cdx2 protein was generated in vitro using linearized pRc/CMV-Cdx2 expression vector as a template for the TNT-Quickcoupled Kit (Promega).
(§2) Cdx2 binds specifically to the FP1 probe. To determine whether FP1 is a binding site for Cdx2, labeled FP1 was incubated with in vitro transcribed and translated murine Cdx2. […]

[2] = target: T1, Cdx2; experiment: EMSA; no specific complex formed; conditions: tags: pRc/CMV-Cdx2, TNT Quick-coupled (Promega); label: 32P 5'-end
Protocol: as §1, §2

Binder	binding result [1]	binding result [2]
B1	binds	–
B2	–	no binding
